This is an account of results in patent US20140271653A1 (Regeneron, published 2014).

Test [1] concerns the target T1, RSV-F.mmh (Respiratory Syncytial Virus).
T1 construct: also called recombinant RSV-F; soluble monomeric RSV-F
Briefly: SPR (Biacore), mAb captured via Fc, soluble RSV-F.mmh injected, 25 C. (In general: In SPR one partner is held on a chip, and binding of the other changes the refractive index at the surface.)
Description: Measurements were conducted on a Biacore 4000 or T-200 instrument. […] All Biacore binding studies were performed in HBST running buffer (0.01 M HEPES pH 7.4, 0.15 M NaCl, 3 mM EDTA, 0.005% v/v surfactant P20). Different concentrations of RSV-F.mmh prepared in HBST running buffer were injected over the anti-RSV-F monoclonal antibody captured surface at a flow rate of 30 μl/min (Biacore 4000) or at a flow rate of 50 μl/min (Biacore T-200) and the association of RSV-F.mmh to captured monoclonal antibody was monitored for 6 min or 3 min respectively. The dissociation of RSV-F.mmh from the monoclonal antibody in HBST running buffer was monitored for 8-10 min at 25° C. Kinetic association (kₐ) and dissociation (kd) rate constants were determined by processing and fitting the data to a 1:1 binding model using Scrubber 2.0 curve fitting software. Binding dissociation equilibrium constants (KD) and dissociative half-lives (t½) were calculated from the kinetic rate constants as: KD (M)=kd/kₐ; and t_{1/2} (min)=(ln 2/(60*kd).

For test [2], the target named is T2, RSV-F of RSV subtype A strain A2 (1540) (respiratory syncytial virus subtype A, …, UniProt P03420 26-574). Briefly: cell-based or functional assay.
For test [3], the target named is RSV-F of RSV subtype B strain 9320 (respiratory syncytial virus subtype B, …). Kind of test: cell-based or functional assay.
The target of test [4] is RSV-F of RSV subtype B strain 1580 (respiratory syncytial virus subtype B, …). Briefly: cell-based or functional assay.
Test [5] addresses T1, RSV-F.mmh. Kind of test: SPR (Biacore), mAb captured via Fc, soluble RSV-F.mmh injected, 25 C. The source holds these as a separate data set.
Test [6] deals with RSV-F of RSV subtype A strain Long (respiratory syncytial virus subtype A, …, UniProt P12568 26-574). Briefly: cell-based or functional assay.
Test [7] addresses T2, RSV-F of RSV subtype A strain A2 (1540). Kind of test: cell-based or functional assay. The source holds these as a separate data set.

By Kd is commonly meant a measure of binding affinity in units of concentration. High values mean a looser complex, low ones a tighter complex. One may read the koff as the rate constant with which the complex falls apart. A high value points to fast dissociation. As usually defined, the kon is the second-order rate constant of association. Read a high kon as fast association. The t½ is the time needed for the level to fall by half in the phase considered. Read a high t½ as slow decline.

Where a chain is given by its changes, count along the chain named. Like-named read-outs stand apart in the source and are kept apart here.

B1: H1M3627N (antibody, V domains shown)
VH: EVQLVESGGGLVQPGGSLRLSCAASGFTISNYEMNWVRQAPGKGLEWVSYISTSGITIYYADSVQGRFTISRDNAKNSLYLQLNSLRAEDTAVYYCARGYCTNGVCYPHYYYSDMDVWGQGTTVTVSS
VL: DIQMTQSPSSLSASVGDRLTITCRASQTISTYLNWFQQKVGNAPKLLIYSTSSLQSGVPARFSGSGSGTDFTLTISSLQPEDFATYYCQQSYSSPPTFGQGTKVEIK
Consider B1, for which, in the test with RSV-F.mmh [1], binding was put at a Kd of 2.02 nM, the koff was 0.000523 s⁻¹, the kon was 259000 M⁻¹ s⁻¹ and the “t½” value was found to be 0.367 h. In addition, in test [2], the “IC50 [pM] for RSV A2 Neutralization, Trial 1” value (from here on “IC50 [pM] … Trial 1”) was determined as 4 pM; the “IC50 [pM] for RSV A2 Neutralization, Trial 2” value (from here on “IC50 [pM] … Trial 2”) came to 4 pM; the “IC50 [pM] for RSV A2 Neutralization, Trial 3” value came out at 5 pM; the “IC50 [pM] for RSV A2 Neutralization, Trial 6” value came to 10 pM.

B2: H1H3627N (antibody, V domains shown)
VH: B1 VH
VL: B1 VL
Consider B2, for which, in test [3], the “RSV-9320 Neutral. IC50 [pM]” value amounted to 11 pM and the “RSV-9320 neutralization, Fold Improvement Relative to Control 1” value stood at 42 fold. In test [4], the “RSV - 1580 Neutral. IC50 [pM]” value worked out at 6.7 pM and the “RSV - 1580 neutralization, Fold Improvement Relative to Control 1” value turned out to be 55 fold. Further, the “IC50 [pM] for RSV A2 Neutralization, Trial 7” value in test [2] came to 3 pM. Besides, in the test with RSV-F.mmh [5], the Kd was found to be 0.581 nM, the koff is 0.000149 s⁻¹, the kon amounted to 256000 M⁻¹ s⁻¹ and the “t½” value amounted to 1.3 h. In test [6], the “RSV-Long Neutral. IC50 [pM]” value is 7.3 pM and the “RSV-Long neutralization, Fold Improvement Relative to Control 1” value came to 73 fold. Besides, in test [7], the “RSV-A2 (1540) Neutral. IC50 [pM]” value is 2.6 pM and the “RSV-A2 (1540) neutralization, Fold Improvement Relative to Control 1” value was found to be 138 fold.

B3: H1H3608P2 (antibody, V domains shown)
VH: QVQLVESGGGVVQPGRSLRLSCAASGFTFSSYGMHWVRQAPGKGLEWVAVIYYEGSNDYYVDSVKGRFTISRDNSKNTLYLQMNSLRAEDTAVYYCARRDWNSFDYWGQGTLVTVSS
VL: DIVMTQSPLSLSVTPGEPASISCRSSQNLLNRNGFNYLDWYLQKPGQSPQLLIYLGSNRASGVPDRFSGSGSGTDFTLKISRVEVEDVGVYYCMQAIQTPYTFGQGTKLEIK
With B3, the “IC50 [pM] … Trial 1” value in test [2] was more than 10000 pM. Also, in the test with RSV-F.mmh [5], binding was put at a Kd of 5.35 nM, the koff is 2.6e-05 s⁻¹, the kon was 4850 M⁻¹ s⁻¹ and the “t½” value came out at 7.42 h.

B4: H1M3622N (antibody, V domains shown)
VH: QVQLQQWGAGLLKPSETLSLTCAVYGGSLSDYYWSWIRQPPGKGLEWIGEINHSGDTNYDPSLKSRLTISVDTSKNQFSLKLNSVTAADTAVYYCASLYFNFWMWGRGALVTVSS
VL: DIVMTQTPLSSPVILGQPASISCRSSQSLVYSDGNTYLSWLQQRPGQPPRLLIYKISNRFSGVPDRFSGSGTGTDFTLKISRVEAEDVGIYYCMQTTQFPLTFGGGTKVEIK
Turning to B4, in the test with RSV-F.mmh [1], the Kd amounted to 2.38 nM, the koff worked out at 9.13e-05 s⁻¹, the kon is 38400 M⁻¹ s⁻¹ and the “t½” value was 2.12 h. For the same molecule, in test [2], the “IC50 [pM] … Trial 1” value was found to be 320 pM and the “IC50 [pM] … Trial 2” value was 82 pM.

B5: H1M3621N (antibody, V domains shown)
VH: QVQLEQSGAEVKKPGASVRISCKASGDTFTGYYINWVRQAPGQGLEWMGWINTNSGGTYFSQKFQVRVILTRDTSINTAYMELSRLRSDDTAVYYCARMFYDILTNSDIFDIWGQGTMVTVSS
VL: DIQMTQSPSSLSASVGDRVTITCRASQDIRNDLGWYQQKPGKAPKCLIYGASSLQSGVPSRFSGSGSGTEFTLTISSLQPEDFATYYCLQHKNYMYTFGQGTKLEIK
On to B5, for which, in the test with RSV-F.mmh [1], the Kd was found to be 1.01 nM, the koff turned out to be 0.000208 s⁻¹, the kon stood at 205000 M⁻¹ s⁻¹ and the “t½” value was 0.933 h. Further, in test [2], the “IC50 [pM] … Trial 1” value was determined as 582 pM and the “IC50 [pM] … Trial 2” value came out at 180 pM.

B6: H1M3624N (antibody, V domains shown)
VH: B5 VH with A16T, T28I, I34M, K63R, V66G, I69T, N77R, N106G, I109V
VL: B5 VL with Q37H
notes: also called H1M2634N
With B6, in the test with RSV-F.mmh [1], the Kd turned out to be 1.02 nM, the dissociation rate constant (koff) came out at 0.000183 s⁻¹, the kon was 179000 M⁻¹ s⁻¹ and the “t½” value was determined as 1.05 h. In test [2], the “IC50 [pM] … Trial 1” value was determined as 540 pM; the “IC50 [pM] … Trial 2” value turned out to be 270 pM; the “IC50 [pM] for RSV A2 Neutralization, Trial 3” value turned out to be 92 pM.
